Reference: patent US20240117073A1, “METHODS OF TREATING NEOPLASTIC ASTROCYTOMA” (Ludwig Institute for Cancer Research Ltd., priority 2009, published 2024)
Where “and” joins values, the source holds several entries; their conditions need not be identical. Equal entries are not always repeated. Entries after “also recorded” stand apart in the source; their conditions may differ.

What was measured:
[1] = target: T1, de2-7 EGFR and wtEGFR (Homo sapiens, UniProt P00533, DELINS30-297G); experiment: immunoprecipitation from 35S-labeled cells; assay type: binding
T1 construct: expressed in transfected cells; host or cells: NR6ΔEGFR and U87MG.ΔEGFR/U87MG.Δ2-7 (transfected ΔEGFR); U87MG.wtEGFR (transfected wtEGFR); U87MG and A431 (endogenous wtEGFR)
Procedure: Briefly, cells were labeled for 16 h with […] of Tran ^35S-Label (ICN Biomedicals, Irvine, CA) in DMEM without methionine/cysteine supplemented with 5% dialyzed FCS. After washing with PBS, cells were placed in lysis buffer (1% Triton X-100, 30 mM HEPES, 150 mM NaCl, 500 μM 4-(2-aminoethyl) benzenesulfonylfluoride (AEBSF), 150 nM aprotinin, 1 μM E-64 protease inhibitor, 0.5 mM EDTA, and 1 μM leupeptin, pH 7.4) for 1 h at 4° C. Lysates were clarified by centrifugation for 10 min at 12,000 g and then incubated with 5 μg of appropriate antibody for 30 min at 4° C. before the addition of Protein A-Sepharose. Immunoprecipitates were washed three times with lysis buffer, mixed with SDS sample buffer, separated by gel electrophoresis using a 4-20% Tris/glycine gel that was then dried, and exposed to X-ray film.

[2] = system: Ba/F3 cells expressing the wtEGFR; experiment: EGF-induced proliferation (MTT assay); assay type: cell-based; details: antibody 10 μg/ml
Procedure: Cells growing in log phase were harvested and washed twice with PBS to remove residual IL-3. […] Proliferation was determined using the MTT assay (van de Loosdrecht et al. (1994) J. Immunol. Methods. 174, 311-320).

[3] = system: HN5 head and neck cell line; experiment: FACS binding to cell lines; assay type: cell-based, human
[4] = system: glioblastomas not preselected for their EGFR status; experiment: immunohistochemistry of 46 unselected glioblastomas; design: species or system human
Procedure: Immunohistochemical analysis was performed using 5 mm sections of fresh frozen tissue applied to histology slides and fixed for 10 minutes in cold acetone. Bound primary antibody was detected with biotinylated horse anti-mouse antibody followed by an avidin-biotin-complex reaction. Diaminobenzidine tetra hydrochloride (DAB) was used as chromogen. The extent of the immunohistochemical reactivity in tissues was estimated by light microscopy and graded according to the number of immunoreactive cells in 25% increments as follows: • Focal=less than 5% • +=5-25% • ++=25-50% • +++=50-75% • ++++=>75%

[5] = target: T2, biotinylated de2-7 specific peptide (Homo sapiens, UniProt P00533, DELINS30-297G); experiment: ELISA on de2-7 peptide; assay type: binding
T2 construct: purchased Auspep, Melbourne, Australia; host or cells: synthetic (Fmoc chemistry)
From the text: In the second assay, the biotinylated de2-7 specific peptide (Biotin-[…] (SEQ ID NO:5)) was bound to ELISA plates precoated with streptavidin (Pierce, Rockford, Illinois). Antibodies were bound and detected as in the first assay.

[6] = target: T3, denatured soluble domain of the EGFR (sEGFR) (Homo sapiens, UniProt P00533); experiment: competition ELISA; assay type: binding; details: after unlabeled blocking antibody
T3 construct: sEGFR is the recombinant extracellular domain (amino acids 1-621) of the wild-type EGFR; made in house; host or cells: CHO cells
Procedure: Briefly, the denatured soluble domain of the EGFR (sEGFR) was coated on to ELISA plates. The unlabeled 124 or 1133 antibodies were then added across the plate in increasing concentrations.

[7] = system: U87MG expressing wild-type EGFR; experiment: protein A mixed hemadsorption; assay type: cell-based, human; details: undiluted supernatant less than 10%
Procedure: As expected, the 528 antibody stained both the U87MG.Δ2-7 and U87MG.wtEGFR cell lines (FIG. 1). As expected, the 528 antibody stained U87MG.Δ2-7 with a higher intensity than the parental cell as it binds both the de2-7 and wild-type receptors that are co-expressed in these cells (FIG. 1). Similar results were obtained using a protein A mixed hemadsorption which detects surface bound IgG by appearance of […] (group O) to target cells.

[8] = target: T4, junction peptide (Homo sapiens, UniProt P00533, DELINS30-297G); experiment: dot-blot immune stain; assay type: binding
T4 construct: purchased Biosource, Camarillo, CA; host or cells: synthetic
Procedure: Dot-blot immune stain experiments were also performed. Serial dilutions of peptide were spotted in 0.5 μl onto a PVDF or nitrocellulose membranes. […] Control antibodies were also negative for peptide binding.

[9] = system: A431 xenografts; experiment: combination therapy with AG1478, preventative model; assay type: in vivo, mice; details: 0.1 mg mAb806; 400 μg AG1478
Procedure: AG1478 (4-(3-Chloroanilino)-6,7-dimethoxyquinazoline) is a potent and selective inhibitor of the EGFR kinase versus HER2-neu and platelet-derived growth factor receptor kinase (Calbiochem Cat. No. 658552). […] The results are illustrated in FIG. 12. […] 400 μg AG1478 was administered at 0, 2, 4, 7, 9, and 11 days post xenograft.

[10] = system: U87MG brain xenografts; experiment: systemic treatment of intracranial xenografts; design: species or system nude mice; details: mouse, in vivo
Procedure: (§1) U87MG.ΔEGFR cells (1×10^5) or 5×10^5 LN-Z308.ΔEGFR, A1207.ΔEGFR, U87MG, U87MG.DK, and U87MG.wtEGFR cells in 5 μl of PBS were implanted into the right corpus stratum of nude mice brains as described previously (Mishima et al. (2000) A peptide derived from the non-receptor binding region of urokinase plasminogen activator inhibits glioblastoma growth and angiogenesis in vivo in combination with cisplatin. Proc. Natl. Acad. Sci. U.S.A. 97, 8484-8489).

[11] = system: parental U87MG cells; experiment: binding of iodinated antibody to cells; design: species or system human
[12] = target: T5, wtEGFR on A431 cells (Homo sapiens, UniProt P00533); experiment: Scatchard analysis on A431 cells; assay type: binding
T5 construct: A431 cells are human squamous carcinoma cells and express high levels of wtEGFR; host or cells: A431 human squamous (epidermoid) carcinoma cells
Procedure: All binding assays were performed in 1% HSA/PBS on 1-2×10^6 live U87MG.Δ2-7 or A431 cells for 90 min at 4° C. with gentle rotation. A set concentration of 10 ng/ml ^125I-labeled antibody was used in the presence of increasing concentrations of the appropriate unlabeled antibody. Non-specific binding was determined in the presence of 10,000-fold excess of unlabeled antibody. […] After the incubation was completed, cells were washed and counted for bound ^125I-labeled antibody using a COBRA II gamma counter (Packard Instrument Company, Meriden, CT, USA).

[13] = system: U87MG.de2-7 cells; experiment: ADCC assay; assay type: cell-based, human; details: E:T ratio 50:1
Procedure: PBMCs were isolated from healthy volunteer donor blood. Heparinized whole blood was fractionated by density centrifugation on Ficoll-Hypaque (ICN Biomedical Inc., Ohio, USA). PBMC fractions was collected and washed three times with RPMI+1640 supplemented with 100 U/ml penicillin and 100 μg/ml streptomycin, 2 mM L-glutamine, containing 5% heat-inactivated FCS.
CDC and ADCC assays were performed by a modification of a previously published method (Nelson, D. L. et al. (1991) In: J. E. Colignan, A. M. Kruisbeek, D. D. Margulies, E. M. Shevach, and W. Strober (eds.), Current Protocols in Immunology, pp. 7.27.1. New York: Greene Publishing Wiley Interscience). Briefly, 5×10^6 target U87MG.de2-7 and A431cells were labeled with 50 μCi^51Cr (Geneworks, Adelaide, Australia) per 1×10^6 cells and incubated for 2 hr at 37° C. The cells were then washed three time with PBS (0.05M, pH 7.4) and a fourth wash with culture medium. […]
In the first assay, labelled target cells were plated with the effector cells in 96-well “U” bottom microplates (NUNC, Roskilde, Denmark) at effector/target (E:T) cell ratios of 50:1. […] In both assays, micotitre plates were incubated at 37° C. for 4 hours, then 50 μl supernatant was harvested from each well and released ^51Cr was determined by gamma counting (Cobra II automated Gamma Counter, Canberra Packard, Melbourne, Australia). […]

[14] = system: U87MG.DK brain xenografts; experiment: systemic treatment of intracranial xenografts; design: species or system nude mice; details: mouse, in vivo
Procedure: as §1

[15] = target: T6, EGFR from U87MG.wtEGFR and A431 cells (Homo sapiens, UniProt P00533); experiment: immunoprecipitation and Endo H digestion; assay type: binding
T6 construct: expressed in transfected cells; host or cells: U87MG.wtEGFR (transfected with wtEGFR) and A431 (endogenous, amplified gene)
Procedure: This possibility was tested by immunoprecipitating the EGFR from different cells lines labelled overnight with ^35S methionine/cysteine and then subjecting the resultant precipitates to Endoglycosidase H (Endo H) digestion. This enzyme preferentially removes high mannose type carbohydrates (i.e. immature glycosylation) from proteins while leaving complex carbohydrates (i.e. mature glycosylation) intact.

[16] = target: T7, wtEGFR (Homo sapiens, UniProt P00533); experiment: immunoblotting of cell lysates; assay type: binding
T7 construct: host or cells: cell lysates

[17] = system: MDA-468 breast cancer cell line; experiment: FACS binding to cell lines; assay type: cell-based, human
[18] = system: A431 xenografts; details: mouse, in vivo
Procedure: U87MG or A431 cells were injected on one side 7-10 days before U87MG.Δ2-7 cells were injected on the other side because of the faster growth rate observed for de2-7 EGFR expressing xenografts. Antibodies were radiolabeled and assessed for immunoreactivity as described above and were injected into mice by the retro-orbital route when tumors were 100-200 mg in weight. […] Unless indicated, groups of 5 mice were sacrificed at various time points post-injection and blood obtained by cardiac puncture. The tumors, liver, spleen, kidneys and lungs were obtained by dissection. All tissues were weighed and assayed for ^125I and ^131I activity using a dual-channel counting Window. Data was expressed for each antibody as % ID/g tumor determined by comparison to injected dose standards or converted into tumor to blood/liver ratios (i.e. % ID/g tumor divided by % ID/g blood or liver). Differences between groups were analyzed by Student's t-test.

B1: mAb806: murine monoclonal antibody recognizing de2-7 EGFR and amplified EGFR; VH SEQ ID NO:2, VL SEQ ID NO:4 (antibody, listed as Mus musculus, V domains shown)
VH: MRVLILLWLFTAFPGVLSDVQLQESGPSLVKPSQSLSLTCTVTGYSITSDFAWNWIRQFPGNKLEWMGYISYSGNTRYNPSLKSRISITRDTSKNQFFLQLNSVTIEDTATYYCVTAGRGFPYWGQGTLVTVSA
VL: MVSTAQFLAFLLLWFPGARCDILMTQSPSSMSVSLGDTVSITCHSSQDINSNIGWLQQRPGKSFKGLIYHGTNLDDEVPSRFSGSGSGADYSLTISSLESEDFADYYCVQYAQFPWTFGGGTKLEIKR
immunoprecipitated EGFR bands [1]: immunoprecipitated the two de2-7 EGFR bands, the wtEGFR was completely absent; also recorded: immunoprecipitated a single band corresponding to the wtEGFR from both U87MG.wtEGFR and A431 cells | effect on EGF-induced proliferation [2]: no effect | FACS staining [3]: clearly stained both cell lines but at a lower level | positive cases ([4]; 46 glioblastomas): 58.7% | positive cases/cases ([4]; 46 glioblastomas): 27/46 | immunohistochemical staining ([4]; case with EGFR Amp. N, A2): ++++ (++++=>75%) | immunohistochemical staining ([4]; cases with EGFR Amp. A, WT): ++++ (++++=>75%) | immunohistochemical staining ([4]; cases with EGFR Amp. N, mutation nd): neg. | immunohistochemical staining ([4]; cases with EGFR Amp. nd, mutation nd): neg. | cases with homogeneous immunoreactivity ([4]; mAb806: in more than 50% of the tumor): 22 | binding to unique de2-7 EGFR peptide [5]: Neither mAb806 nor the 528 antibody bound to the peptide | Binding of biotin-labeled 806 [6]: None | reactivity [7]: no significant reactivity | binding to peptide on membranes [8]: did not bind peptide | tumor volume [9]: significant reduction of tumor volume | effect on survival [10]: did not extend survival | binding of iodinated antibody [11]: Neither ^125I-radiolabeled mAb806 or the DH8.3 antibody bound; also recorded: did not bind | receptors (binding sites) per cell [12]: 2.4×10^5 receptors per cell and 2.3×10^5 receptors per cell | affinity ([12]; average of three experiments): 9.5e+07 M⁻¹ | ADCC [13]: lack of parental murine mAb806 immune effector function | effect on survival [14]: did not extend survival | Endo H sensitivity of precipitated EGFR [15]: sensitive to Endo H | reactivity after immunoblotting [16]: bound to the wtEGFR | FACS staining [17]: clearly stained both cell lines but at a lower level | uptake expressed as % ID/g tumor [18]: comparatively low
